Paper PMC2735620
Where a chain is given by its changes, count along the chain named. In names and notes the source's numbering stands.

Molecular target: Gαi/13 (N-terminally hexahistidine tagged chimera), AlF4−-activated
Assay: flow cytometry protein interaction assay

B1: LARG RH/DH/PH-F1098D (domain or fragment)
chain: SPSTRIAPHIIGAEDDDFGTEHEQINGQCSCFQSIELLKSRPAHLAVFLHHVVSQFDPATLLCYLYSDLYKHTNSKETRRIFLEFHQFFLDRSAHLKVSVPDEMSADLEKRRPELIPEDLHRHYIQTMQERVHPEVQRHLEDFRQKRSMGLTLAESELTKLDAERDKDRLTLEKERTCAEQIVAKIEEVLMTAQAVEEDKSSTMQYVILMYMKHLGVKVKEPRNLEHKRGRIGFLPKIKQSMKKDKEGEEKGKRRGFPSILGPPRRPSRHDNSAIGRAMELQKARHPKHLSTPSSVSPEPQDSAKLRQSGLANEGTDAGYLPANSMSSVASGASFSQEGGKENDTGSKQVGETSAPGDTLDGTPRTLNTVFDFPPPPLDQVQEEECEVERVTEHGTPKPFRKFDSVAFGESQSEDEQFENDLETDPPNWQQLVSREVLLGLKPCEIKRQEVINELFYTERAHVRTLKVLDQVFYQRVSREGILSPSELRKIFSNLEDILQLHIGLNEQMKAVRKRNETSVIDQIGEDLLTWFSGPGEEKLKHAAATFCSNQPFALEMIKSRQKKDSRFQTFVQDAESNPLCRRLQLKDIIPTQMQRLTKYPLLLDNIAKYTEWPTEREKVKKAADHCRQILNYVNQAVKEAENKQRLEDYQRRLDTSSLKLSEYPNVEELRNLDLTKRKMIHEGPLVWKVNRDKTIDLYTLLLEDILVLLQKQDDRLVLRCHSKILASTADSKHTFSPVIKLSTVLVRQVATDNKALDVISMSDNGAQIYELVAQTVSEKTVWQDLICRMAASVKEQS
For B1, the Ki was 20 nM.

B2: LARG RH/DH/PH-E354K (domain or fragment)
chain: B1 chain with E14K, D758F
B2 was tested, and the Ki was 540 nM.
